Assay [1] concerns the target PLCG2 tandem SH2 domains (human). The experiment in a line: peptide or protein array; SH2/PTB proteins spotted on aldehyde slides, rhodamine peptide titrated in buffer B (20 mM HEPES, 100 mM KCl, 0.1% Tween-20, 5 mM DTT, pH 7.8), 1 h at room temperature; replicate assays.
For another assay, the target named is TEC SH2 domain (human) (UniProt P42680). The assay is described as above.
Assay [2] has as its target SYK N-terminal SH2 domain (human). Described as above.
The target in another assay is LCK SH2 domain (human) (UniProt P06239). The assay is described as above.
Another assay addresses LYN SH2 domain (human) (UniProt P07948). The description is as above.
In a further assay the target is SH2B3 SH2 domain (human) (UniProt Q9UQQ2). The description is as above.
A further assay has as its target BLNK SH2 domain (human) (UniProt Q8WV28). The assay is described as above.
Assay [3] addresses SH2D3C SH2 domain (human) (UniProt Q8N5H7). The description is as above.
A further assay has as its target GRB7 SH2 domain (human) (UniProt Q14451). The description is as above.
Another assay concerns the target BLK SH2 domain (human) (UniProt P51451). Described as above.
Assay [4] concerns the target SYK C-terminal SH2 domain (human). The description is as above.
In another assay the target is ABL2 SH2 domain (human) (UniProt P42684). The description is as above.
The target in a further assay is FGR SH2 domain (human) (UniProt P09769). The description is as above.
Another assay addresses TNS3 SH2 domain (human) (UniProt Q68CZ2). The assay is described as above.
Assay [5] concerns the target SH2D1A SH2 domain (human) (UniProt O60880). The assay is described as above.
Assay [6] addresses SYK tandem SH2 domains (human). Described as above.
Assay [7] deals with SH3BP2 SH2 domain (human) (UniProt P78314). The description is as above.
The target of assay [8] is ZAP70 C-terminal SH2 domain (human) (UniProt P43403). The description is as above.
In another assay the target is PIK3R2-NC (Homo sapiens) (UniProt O00459). The conditions noted are these: cited from earlier work.
In the next assay the target is SH2D3A (Homo sapiens) (UniProt Q9BRG2). The conditions noted are these: cited from earlier work.
In a further assay the target is BLK (Homo sapiens) (UniProt P51451). The conditions noted are these: cited from earlier work.

pKd: −log10 of the molar value. Where “and” joins values, the source holds several entries; their conditions need not be identical. Equal values may be shown once.

Chain of TNS3 SH2 domain (human) (Q68CZ2 1172-1282): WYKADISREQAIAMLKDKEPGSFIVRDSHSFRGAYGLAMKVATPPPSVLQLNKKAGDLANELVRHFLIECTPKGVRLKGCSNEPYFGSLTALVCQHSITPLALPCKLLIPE
Chain of LCK SH2 domain (human) (P06239 127-224): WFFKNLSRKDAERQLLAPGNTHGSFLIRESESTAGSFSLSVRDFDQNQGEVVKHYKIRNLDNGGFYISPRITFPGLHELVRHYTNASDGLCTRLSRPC
Chain of BLK SH2 domain (human) (P51451 124-220): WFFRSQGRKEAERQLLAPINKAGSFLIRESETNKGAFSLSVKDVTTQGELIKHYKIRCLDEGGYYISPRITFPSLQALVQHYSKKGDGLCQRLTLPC
Chain of TEC SH2 domain (human) (P42680 247-345): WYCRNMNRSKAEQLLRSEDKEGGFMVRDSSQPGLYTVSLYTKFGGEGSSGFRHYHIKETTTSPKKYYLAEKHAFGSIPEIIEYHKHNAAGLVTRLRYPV
Chain of LYN SH2 domain (human) (P07948 129-226): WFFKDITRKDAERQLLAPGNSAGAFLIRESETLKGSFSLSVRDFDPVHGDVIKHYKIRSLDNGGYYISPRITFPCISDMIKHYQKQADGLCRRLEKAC
Chain of SH2D1A SH2 domain (human) (O60880 6-104): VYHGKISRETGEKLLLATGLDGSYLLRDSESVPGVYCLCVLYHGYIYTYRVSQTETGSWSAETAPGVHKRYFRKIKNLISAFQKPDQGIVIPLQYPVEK
Chain of SH2D3C SH2 domain (human) (Q8N5H7 220-319): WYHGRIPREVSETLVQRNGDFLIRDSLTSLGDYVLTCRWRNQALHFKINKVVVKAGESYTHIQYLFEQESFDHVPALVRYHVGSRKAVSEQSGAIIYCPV
Chain of ABL2 SH2 domain (human) (P42684 173-263): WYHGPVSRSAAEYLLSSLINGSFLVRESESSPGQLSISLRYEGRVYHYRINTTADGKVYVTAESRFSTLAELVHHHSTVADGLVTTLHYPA
Chain of SH3BP2 SH2 domain (human) (P78314 457-555): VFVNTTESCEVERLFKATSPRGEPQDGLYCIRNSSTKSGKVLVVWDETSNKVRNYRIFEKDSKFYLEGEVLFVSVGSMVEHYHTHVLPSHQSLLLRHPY
Chain of PIK3R2-NC (Homo sapiens) (O00459 325-721): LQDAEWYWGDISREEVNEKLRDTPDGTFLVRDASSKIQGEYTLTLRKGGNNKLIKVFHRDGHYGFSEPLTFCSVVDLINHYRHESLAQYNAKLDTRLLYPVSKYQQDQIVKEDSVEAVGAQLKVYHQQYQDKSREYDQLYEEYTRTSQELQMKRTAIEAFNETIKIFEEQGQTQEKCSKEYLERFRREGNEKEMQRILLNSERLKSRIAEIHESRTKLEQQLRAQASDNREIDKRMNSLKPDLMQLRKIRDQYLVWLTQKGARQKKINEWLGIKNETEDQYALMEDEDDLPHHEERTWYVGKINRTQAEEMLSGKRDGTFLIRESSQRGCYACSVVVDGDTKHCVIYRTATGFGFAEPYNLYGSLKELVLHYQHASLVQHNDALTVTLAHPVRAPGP
Chain of ZAP70 C-terminal SH2 domain (human) (P43403 whole entry, the tested form may be a part): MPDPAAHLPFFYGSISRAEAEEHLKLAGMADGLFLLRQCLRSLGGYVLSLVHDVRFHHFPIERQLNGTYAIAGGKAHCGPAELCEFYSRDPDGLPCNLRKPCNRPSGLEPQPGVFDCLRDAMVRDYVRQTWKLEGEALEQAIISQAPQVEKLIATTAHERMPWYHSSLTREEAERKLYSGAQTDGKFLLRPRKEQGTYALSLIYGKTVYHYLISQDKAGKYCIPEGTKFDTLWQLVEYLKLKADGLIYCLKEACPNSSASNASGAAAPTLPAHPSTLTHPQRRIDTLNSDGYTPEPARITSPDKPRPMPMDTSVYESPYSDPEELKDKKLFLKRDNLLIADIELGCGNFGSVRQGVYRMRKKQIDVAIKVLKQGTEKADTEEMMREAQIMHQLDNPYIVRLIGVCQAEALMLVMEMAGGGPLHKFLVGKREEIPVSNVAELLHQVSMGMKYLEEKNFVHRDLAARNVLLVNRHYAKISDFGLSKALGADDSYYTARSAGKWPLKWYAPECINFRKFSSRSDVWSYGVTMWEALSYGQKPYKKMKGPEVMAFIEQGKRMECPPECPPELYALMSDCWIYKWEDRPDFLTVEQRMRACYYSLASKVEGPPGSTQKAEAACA
Chain of BLK (Homo sapiens) (P51451 119-225): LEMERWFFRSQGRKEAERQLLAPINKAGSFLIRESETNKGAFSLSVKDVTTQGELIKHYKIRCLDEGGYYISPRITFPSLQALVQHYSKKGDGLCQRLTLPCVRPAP
Chain of SH2B3 SH2 domain (human) (Q9UQQ2 364-462): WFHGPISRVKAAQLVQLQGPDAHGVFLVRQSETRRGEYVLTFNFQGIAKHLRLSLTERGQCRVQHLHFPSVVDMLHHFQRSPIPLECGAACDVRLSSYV
Chain of GRB7 SH2 domain (human) (Q14451 431-527): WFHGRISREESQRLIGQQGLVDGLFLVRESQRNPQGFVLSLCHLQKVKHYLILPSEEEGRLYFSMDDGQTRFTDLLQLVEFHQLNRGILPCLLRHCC
Chain of SH2D3A (Homo sapiens) (Q9BRG2 10-119): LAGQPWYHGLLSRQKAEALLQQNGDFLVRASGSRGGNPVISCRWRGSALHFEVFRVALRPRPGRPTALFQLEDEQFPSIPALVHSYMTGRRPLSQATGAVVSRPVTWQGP
Chain of BLNK SH2 domain (human) (Q8WV28 346-453): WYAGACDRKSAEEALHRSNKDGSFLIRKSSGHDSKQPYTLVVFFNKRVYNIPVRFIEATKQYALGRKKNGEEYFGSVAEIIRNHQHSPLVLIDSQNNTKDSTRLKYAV

Regarding “ErbB4 pY1262 phosphopeptide, rhodamine-labelled, for protein microarrays”, the pKd in [1] is 6.90 and 6.42; in the assay with TEC SH2 domain (human) it was 6.39 and 5.93; in assay [2], 6.50 and 6.23; with LCK SH2 domain (human) it was 6.67 and 6.43; with LYN SH2 domain (human) it was 6.70 and 6.24; with SH2B3 SH2 domain (human), 5.79. The pKd is 5.79 with BLNK SH2 domain (human); 5.84 and 5.94 in assay [3]; 6.47 with GRB7 SH2 domain (human); 6.77 and 6.27 with BLK SH2 domain (human); 6.39 in [4]; 7.22 and 6.51 with ABL2 SH2 domain (human). The negative logarithm of the Kd (pKd) with FGR SH2 domain (human) was 6.70 and 6.40; with TNS3 SH2 domain (human), 6.43 and 6.13; in assay [5] it was 6.38 and 6.23; in [6], 6.78 and 6.19; in assay [7], 6.39 and 5.83; in assay [8], 6.23.

…pYLIPQQGFd: the apparent Kd (screen) with PIK3R2-NC (Homo sapiens) was 352 nM.

For …pYWDQDPPE, the results for the apparent Kd (screen) with SH2D3A (Homo sapiens) and with BLK (Homo sapiens) were 1600 nM and 52 nM, respectively.

(Values after publication PMC3433420.)
